The source of these data is patent US20250002577A1 (ONCORESPONSE, published 2025).

What is called EC50 is the concentration giving half of the maximal effect.

The target of test [1] is T1, recombinant human LILRB2-His (human, UniProt Q8N423 22-461, limits assumed).
T1 construct: Bought protein; also called LILRB2 protein
The experiment in a line: MSD ELISA, coated antigen, purified IgG1. (In general: ELISA stands for enzyme-linked immunosorbent assay.)

Test [2] addresses T2, recombinant human LILRB1-His (human, UniProt Q8NHL6 24-458).
T2 construct: Bought protein; also called LILRB1 protein
Description: MSD ELISA, coated antigen, purified IgG1.

Test [3] concerns the target T3, recombinant cynomolgus LILRB1 (cynomolgus).
T3 construct: Bought protein
Description: MSD ELISA, coated antigen, purified IgG1.

Test [4] concerns the target T4, human LILRB2 on cells (human, UniProt Q8N423 22-597).
T4 construct: whole, on cells; also called hLILRB2; LILRB2-HEK293T
The experiment in a line: flow cytometry, LILRB2-HEK293T cells, AF647-labelled antibody. An outline of the steps: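 Cells were blocked 30 min at 4° C in FACS buffer with 10% FBS and 0.5 mg/mL human IgG1. AF647-labelled antibodies were then bound for 1 h at 4° C. After Zombie Violet viability staining, binding was read by flow cytometry.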

In test [5] the target is T5, human LILRA1 on HEK293-6E cells (human, UniProt O75019 17-489).
T5 construct: whole, on cells; also called hLILRA1
T5 sequence (O75019 17-489): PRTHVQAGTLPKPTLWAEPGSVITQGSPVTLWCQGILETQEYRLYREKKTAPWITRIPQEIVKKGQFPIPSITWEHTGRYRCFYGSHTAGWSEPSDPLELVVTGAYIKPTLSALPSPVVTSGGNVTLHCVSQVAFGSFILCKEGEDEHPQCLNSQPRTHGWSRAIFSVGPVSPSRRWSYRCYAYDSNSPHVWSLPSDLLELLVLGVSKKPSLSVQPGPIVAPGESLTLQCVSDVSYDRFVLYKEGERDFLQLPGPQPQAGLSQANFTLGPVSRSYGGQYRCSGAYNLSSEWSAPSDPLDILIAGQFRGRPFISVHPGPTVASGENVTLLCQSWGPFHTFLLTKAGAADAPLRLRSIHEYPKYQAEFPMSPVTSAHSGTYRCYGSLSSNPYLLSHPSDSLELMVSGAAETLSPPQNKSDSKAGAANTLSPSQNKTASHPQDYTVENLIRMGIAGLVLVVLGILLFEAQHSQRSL
Description: flow cytometry, HEK293-6E transfectants. An outline of the steps:
(§1)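 Antibody binding measured by flow cytometry on HEK293-6E cells transiently transfected with individual human LILRB (1–5) or LILRA (1, 2, 4, 5, 6) plasmids. Antibodies tested at 1 μg/mL.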
(A flow cytometer gives signals particle by particle.)

The target of test [6] is T6, human LILRA5 on HEK293-6E cells (human, UniProt A6NI73 42-299).
T6 construct: whole, on cells; also called hLILRA5
T6 sequence (A6NI73 42-299): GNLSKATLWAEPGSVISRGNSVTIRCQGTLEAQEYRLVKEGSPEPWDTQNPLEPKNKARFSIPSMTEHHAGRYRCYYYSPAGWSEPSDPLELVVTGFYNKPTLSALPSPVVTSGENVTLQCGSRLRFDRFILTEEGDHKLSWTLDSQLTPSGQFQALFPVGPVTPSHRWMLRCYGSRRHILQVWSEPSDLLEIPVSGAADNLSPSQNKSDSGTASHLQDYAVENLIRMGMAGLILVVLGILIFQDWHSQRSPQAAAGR
Description: flow cytometry, HEK293-6E transfectants. The essentials:
as §1

For test [7], the target named is T7, human LILRB3 on HEK293-6E cells (human, UniProt O75022 24-631).
T7 construct: whole, on cells; also called hLILRB3
T7 sequence (O75022 24-631): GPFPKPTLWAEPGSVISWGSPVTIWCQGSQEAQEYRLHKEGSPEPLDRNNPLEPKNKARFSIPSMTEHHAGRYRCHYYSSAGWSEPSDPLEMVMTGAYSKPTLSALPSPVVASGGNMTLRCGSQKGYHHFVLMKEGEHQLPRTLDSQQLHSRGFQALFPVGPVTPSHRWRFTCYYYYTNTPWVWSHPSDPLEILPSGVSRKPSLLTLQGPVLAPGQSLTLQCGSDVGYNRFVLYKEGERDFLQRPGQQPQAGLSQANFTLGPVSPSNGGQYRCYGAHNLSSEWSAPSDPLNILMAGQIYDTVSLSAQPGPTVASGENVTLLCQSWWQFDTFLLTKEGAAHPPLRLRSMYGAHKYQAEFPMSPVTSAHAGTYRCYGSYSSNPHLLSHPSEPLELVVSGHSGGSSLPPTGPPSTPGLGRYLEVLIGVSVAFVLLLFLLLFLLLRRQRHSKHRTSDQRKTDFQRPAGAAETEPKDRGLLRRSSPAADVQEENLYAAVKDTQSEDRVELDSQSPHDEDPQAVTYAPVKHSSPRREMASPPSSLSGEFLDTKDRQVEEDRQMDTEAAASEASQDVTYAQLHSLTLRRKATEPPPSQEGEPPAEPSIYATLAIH
The experiment in a line: flow cytometry, HEK293-6E transfectants. The essentials:
as §1

Test [8] deals with T8, human LILRB5 on HEK293-6E cells (human, UniProt O75023 24-590).
T8 construct: whole, on cells; also called hLILRB5
T8 sequence (O75023 24-590): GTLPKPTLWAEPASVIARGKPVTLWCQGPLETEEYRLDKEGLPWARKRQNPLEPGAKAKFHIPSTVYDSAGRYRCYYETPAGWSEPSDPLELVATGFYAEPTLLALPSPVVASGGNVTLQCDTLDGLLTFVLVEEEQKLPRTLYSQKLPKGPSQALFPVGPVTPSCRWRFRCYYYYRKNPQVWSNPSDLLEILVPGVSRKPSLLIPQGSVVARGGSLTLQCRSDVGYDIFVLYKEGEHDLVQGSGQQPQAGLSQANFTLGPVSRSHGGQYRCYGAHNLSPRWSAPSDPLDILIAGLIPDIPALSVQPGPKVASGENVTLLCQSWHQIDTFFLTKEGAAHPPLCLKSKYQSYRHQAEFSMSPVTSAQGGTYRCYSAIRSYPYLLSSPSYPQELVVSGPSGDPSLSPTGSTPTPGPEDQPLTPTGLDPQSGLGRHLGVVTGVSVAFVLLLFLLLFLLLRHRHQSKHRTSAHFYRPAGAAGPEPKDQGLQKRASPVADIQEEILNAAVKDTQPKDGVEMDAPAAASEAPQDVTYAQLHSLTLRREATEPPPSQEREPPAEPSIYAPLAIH
Description: flow cytometry, HEK293-6E transfectants. An outline of the steps: as §1

Test [9] addresses T9, human LILRA2 on HEK293-6E cells (human, UniProt Q8N149 24-483).
T9 construct: whole, on cells; also called hLILRA2
The experiment in a line: flow cytometry, HEK293-6E transfectants. The essentials: as §1

In test [10] the target is T10, human LILRB1 on cells (human, UniProt Q8NHL6 24-650).
T10 construct: whole, on cells; also called hLILRB1; LILRB1-expressing 721.221 cells
Description: flow cytometry, HEK293-6E transfectants. An outline of the steps:
as §1

Test [11] concerns the target T11, human LILRB4 on HEK293-6E cells (human, UniProt Q8NHJ6 22-448).
T11 construct: whole, on cells; also called hLILRB4
The experiment in a line: flow cytometry, HEK293-6E transfectants. The essentials: as §1

The target of test [12] is T12, human LILRA4 on HEK293-6E cells (human, UniProt P59901 24-499).
T12 construct: whole, on cells; also called hLILRA4
T12 sequence (P59901 24-499): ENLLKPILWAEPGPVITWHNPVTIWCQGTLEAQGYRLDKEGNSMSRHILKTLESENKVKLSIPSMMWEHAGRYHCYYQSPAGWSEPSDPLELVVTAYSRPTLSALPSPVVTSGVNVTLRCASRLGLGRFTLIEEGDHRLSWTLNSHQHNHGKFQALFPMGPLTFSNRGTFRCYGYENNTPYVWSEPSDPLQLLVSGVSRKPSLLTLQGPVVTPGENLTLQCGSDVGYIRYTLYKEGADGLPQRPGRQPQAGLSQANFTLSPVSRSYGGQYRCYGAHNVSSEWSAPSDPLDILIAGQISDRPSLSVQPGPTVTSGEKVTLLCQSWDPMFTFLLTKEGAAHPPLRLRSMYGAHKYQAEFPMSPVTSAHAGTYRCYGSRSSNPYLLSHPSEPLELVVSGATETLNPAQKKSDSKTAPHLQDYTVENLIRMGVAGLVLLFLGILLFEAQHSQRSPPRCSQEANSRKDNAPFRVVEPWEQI
The experiment in a line: flow cytometry, HEK293-6E transfectants. The essentials: as §1

For test [13], the target named is T4, human LILRB2 on cells. The experiment in a line: flow cytometry, HEK293-6E transfectants. The essentials: as §1
In test [14] the target is T13, human LILRA6 on HEK293-6E cells (human, UniProt Q6PI73 24-481).
T13 construct: whole, on cells; also called hLILRA6
T13 sequence (Q6PI73 24-481): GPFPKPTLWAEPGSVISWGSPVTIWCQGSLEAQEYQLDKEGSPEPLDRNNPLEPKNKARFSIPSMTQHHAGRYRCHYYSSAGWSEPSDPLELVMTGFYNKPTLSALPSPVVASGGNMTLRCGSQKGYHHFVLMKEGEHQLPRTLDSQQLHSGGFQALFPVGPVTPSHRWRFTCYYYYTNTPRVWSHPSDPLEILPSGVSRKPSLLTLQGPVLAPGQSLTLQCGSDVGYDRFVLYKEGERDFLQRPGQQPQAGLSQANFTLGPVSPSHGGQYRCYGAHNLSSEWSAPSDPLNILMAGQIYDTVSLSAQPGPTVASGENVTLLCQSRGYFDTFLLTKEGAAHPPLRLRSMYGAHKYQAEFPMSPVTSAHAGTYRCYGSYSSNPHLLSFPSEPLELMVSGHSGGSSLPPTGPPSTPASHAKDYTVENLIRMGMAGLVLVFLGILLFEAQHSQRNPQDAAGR
Description: flow cytometry, HEK293-6E transfectants. The essentials:
as §1

Test [15] deals with T10, human LILRB1 on cells. Description: flow cytometry, 721.221 cells, AF647-labelled antibody. On the procedure: While LILRB2 expression is mostly restricted to myeloid cells, LILRB1 has a broader expression on immune cell subsets, including B cells, T cells and NK cells.
Frozen cells were removed from storage in vapor phase liquid nitrogen and thawed by gentle swirling in a water bath at 37° C., then resuspended in DMEM media with 10% FBS. Cells were placed in a 15 mL conical tube and centrifuged at 300×g for 5 min, then supernatant was removed. Cells were resuspended in DMEM+10% FBS at a cell density of 2×10⁵ cells/mL in a T75 flask for culturing, and incubated at 37° C., 5% CO₂ for 3 days before passaging. Cells were passaged when the cell density reached 1×10⁶ cell/mL. On the day of the assay, cells were centrifuged, then supernatant was removed. Cells were resuspended in Blocking Buffer B (FACS Buffer containing 10% FBS and 0.5 mg/mL human IgG1 (Athens Research, No. 16-16-090707-1M)+0.05% NaN₃, 5% (w/v)) in a 15 mL conical tube, then incubated at 4° C. for 30 min. […] Cells were incubated with antibodies at 4° C. for 1 h. Cells were washed twice in FACS Buffer (PBS containing 2 mM EDTA+1% FBS+0.05% NaN₃) and then stained with for 10 min with Zombie Violet™ fixable viability dye (BioLegend, No. 423114) at RT, washed with FACS Buffer and resuspend in 75 μL of FACS Buffer for acquisition on a BD FACSymphony™ or BD FACSCanto™ II flow cytometer (BD Biosciences), as described in Example 6.

T9 sequence (Q8N149 24-483): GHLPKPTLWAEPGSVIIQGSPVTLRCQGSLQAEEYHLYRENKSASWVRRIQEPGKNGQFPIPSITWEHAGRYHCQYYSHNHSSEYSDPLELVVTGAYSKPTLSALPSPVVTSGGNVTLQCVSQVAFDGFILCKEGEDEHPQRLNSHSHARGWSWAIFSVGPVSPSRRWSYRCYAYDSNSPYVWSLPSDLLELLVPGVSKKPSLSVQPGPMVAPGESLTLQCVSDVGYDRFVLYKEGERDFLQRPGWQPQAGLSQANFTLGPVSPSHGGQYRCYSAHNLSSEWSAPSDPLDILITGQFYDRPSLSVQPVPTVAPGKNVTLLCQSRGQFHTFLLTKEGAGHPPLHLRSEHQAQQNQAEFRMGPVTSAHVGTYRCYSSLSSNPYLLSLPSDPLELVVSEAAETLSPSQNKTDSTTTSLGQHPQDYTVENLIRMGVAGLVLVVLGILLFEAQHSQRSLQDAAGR
T2 sequence (Q8NHL6 24-458 limits assumed): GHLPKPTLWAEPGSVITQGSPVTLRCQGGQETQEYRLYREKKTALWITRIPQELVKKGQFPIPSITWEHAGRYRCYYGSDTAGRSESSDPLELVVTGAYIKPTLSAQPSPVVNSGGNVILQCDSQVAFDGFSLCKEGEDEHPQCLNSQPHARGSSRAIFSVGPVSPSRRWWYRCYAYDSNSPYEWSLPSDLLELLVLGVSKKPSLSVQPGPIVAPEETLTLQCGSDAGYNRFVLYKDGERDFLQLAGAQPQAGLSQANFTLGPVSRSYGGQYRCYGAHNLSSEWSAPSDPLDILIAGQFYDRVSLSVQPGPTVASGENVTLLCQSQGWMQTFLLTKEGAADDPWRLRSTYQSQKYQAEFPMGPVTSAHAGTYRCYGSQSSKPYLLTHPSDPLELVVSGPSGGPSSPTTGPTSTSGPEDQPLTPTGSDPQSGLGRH
T1 sequence (Q8N423 22-461 limits assumed): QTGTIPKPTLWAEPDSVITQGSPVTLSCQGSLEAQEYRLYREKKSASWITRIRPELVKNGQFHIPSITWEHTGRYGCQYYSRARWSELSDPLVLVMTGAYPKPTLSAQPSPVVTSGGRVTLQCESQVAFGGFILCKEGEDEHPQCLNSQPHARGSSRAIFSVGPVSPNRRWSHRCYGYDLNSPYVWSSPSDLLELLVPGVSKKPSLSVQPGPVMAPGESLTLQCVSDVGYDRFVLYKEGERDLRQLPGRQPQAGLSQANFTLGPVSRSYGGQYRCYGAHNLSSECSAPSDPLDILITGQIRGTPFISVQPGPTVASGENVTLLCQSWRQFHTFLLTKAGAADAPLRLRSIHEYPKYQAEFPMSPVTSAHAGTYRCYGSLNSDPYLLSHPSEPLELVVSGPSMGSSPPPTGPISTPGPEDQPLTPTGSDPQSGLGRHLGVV
T4 sequence (Q8N423 22-597): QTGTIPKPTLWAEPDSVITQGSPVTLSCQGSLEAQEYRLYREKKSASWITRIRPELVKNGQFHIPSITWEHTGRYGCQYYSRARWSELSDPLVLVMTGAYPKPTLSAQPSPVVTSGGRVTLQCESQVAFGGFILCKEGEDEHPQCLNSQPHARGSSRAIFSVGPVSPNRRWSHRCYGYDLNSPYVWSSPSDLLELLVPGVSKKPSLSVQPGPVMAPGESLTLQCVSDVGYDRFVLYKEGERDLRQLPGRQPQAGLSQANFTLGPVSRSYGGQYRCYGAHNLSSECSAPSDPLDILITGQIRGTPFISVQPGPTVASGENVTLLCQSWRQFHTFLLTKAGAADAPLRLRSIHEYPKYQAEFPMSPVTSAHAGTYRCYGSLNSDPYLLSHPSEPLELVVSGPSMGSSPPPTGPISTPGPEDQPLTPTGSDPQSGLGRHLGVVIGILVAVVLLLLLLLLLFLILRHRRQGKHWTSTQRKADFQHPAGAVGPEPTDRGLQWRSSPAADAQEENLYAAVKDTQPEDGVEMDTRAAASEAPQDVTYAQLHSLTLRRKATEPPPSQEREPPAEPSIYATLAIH

B1: B21H1-24 (antibody, human IgG1, kappa)
heavy: not shown
light: DVVMTQSPSTVSASVGDRVTLTCQASGNIYSFLAWYQQKPGQPPKLLIYTASNLETGVPDRFSGSGSGTDYTLTISSLQADDFATYYCLGGLYSSDVSYAFGQGTKVEIKRTVAAPSVFIFPPSDEQLKSGTASVVCLLNNFYPREAKVQWKVDNALQSGNSQESVTEQDSKDSTYSLSSTLTLSKADYEKHKVYACEVTHQGLSSPVTKSFNRGEC
notes: humanized IgG1/kappa, VH2+VL4
B1: the EC50 turned out to be 0.0287 µg/mL in test [1]; 0.00864 µg/mL in [2]; 0.286 µg/mL in test [3]; 0.00142 µg/mL with human LILRB2 on cells [4]; 0.0595 µg/mL in the test with human LILRB1 on cells [15]. For the same molecule, the MFI in test [5] came to 246 MFI; in test [6], 74.5 MFI; in test [7], 86.2 MFI; in [8], 87 MFI; in test [9] it was 25.6 MFI; with human LILRB1 on cells [10], 985 MFI. The MFI in [11] amounted to 28.6 MFI; in test [12], 125 MFI; with human LILRB2 on cells [13] it was 6050 MFI; in [14] it was 141 MFI. Further, the binding result in [5], in test [6], in test [7], in test [8], in test [9] and in test [11] was “no binding (tested: 1 µg/mL)” throughout. Further, the binding result in test [12] and in test [14] was “no binding (tested: 1 µg/mL)” throughout.

B2: B21H1-32 (antibody, human IgG1, kappa)
heavy: not shown
light: DIQMTQSPSSLSASVGDRVTITCQASGNIYSFLAWYQQKPGKVPKLLIYTASNLETGVPSRFSGSGSGTDYTLTISSLQSEDAATYYCLGGLYSSDVSYAFGGGTKVVIKRTVAAPSVFIFPPSDEQLKSGTASVVCLLNNFYPREAKVQWKVDNALQSGNSQESVTEQDSKDSTYSLSSTLTLSKADYEKHKVYACEVTHQGLSSPVTKSFNRGEC
notes: humanized IgG1/kappa, VH3+VL2
Turning to B2, the 50% effective concentration (EC50) in test [1] worked out at 0.0219 µg/mL; in test [2], 0.00646 µg/mL; in test [3], 0.272 µg/mL; with human LILRB2 on cells [4] it was 0.00123 µg/mL; with human LILRB1 on cells [15], 0.0518 µg/mL. Also, the MFI came out at 249 MFI in [5]; 74 MFI in test [6]; 99.2 MFI in [7]; 87.9 MFI in test [8]; 27.8 MFI in test [9]; 1040 MFI in the test with human LILRB1 on cells [10]. Besides, the MFI in test [11] was found to be 28.8 MFI; in test [12], 126 MFI; with human LILRB2 on cells [13], 5460 MFI; in test [14], 142 MFI. The binding result in [5], in [6], in test [7], in test [8], in test [9] and in test [11] was “no binding (tested: 1 µg/mL)” throughout. Further, the binding result in [12] and in test [14] was “no binding (tested: 1 µg/mL)” each time.

B3: B21H1-11 (antibody, human IgG1, kappa)
heavy: not shown
light: DIQMTQSPSTLSASVGDRVTITCQASGNIYSFLAWYQQKPGKAPKLLIYTASNLETGVPSRFSGSGSGTEYTLTISSLQPDDFATYYCLGGLYSSDVSYAFGPGTKVEIKRTVAAPSVFIFPPSDEQLKSGTASVVCLLNNFYPREAKVQWKVDNALQSGNSQESVTEQDSKDSTYSLSSTLTLSKADYEKHKVYACEVTHQGLSSPVTKSFNRGEC
notes: humanized IgG1/kappa, VH1+VL1
For B3, the half-maximal effective concentration (EC50) in test [1] was determined as 0.0306 µg/mL; in test [2], 0.00734 µg/mL; in test [3] it was 4.4 µg/mL; with human LILRB2 on cells [4] it was 0.00107 µg/mL; with human LILRB1 on cells [15], 0.203 µg/mL. Further, the MFI in test [5] turned out to be 244 MFI; in test [6], 76 MFI; in [7], 102 MFI; in [8], 93.4 MFI; in [9], 27.8 MFI; with human LILRB1 on cells [10], 1000 MFI. The MFI stood at 32.4 MFI in [11], 140 MFI in test [12], 5090 MFI in the test with human LILRB2 on cells [13] and 152 MFI in test [14]. Also, the binding result in test [5], in [6], in test [7], in test [8], in test [9] and in test [11] was “no binding (tested: 1 µg/mL)” each time. For the same molecule, the binding result in test [12] and in test [14] was “no binding (tested: 1 µg/mL)” each time.

B4: B21H1-43 (antibody, human IgG1, kappa)
heavy: not shown
light: DIVMTQSPSSVSASVGDRVTITCQASGNIYSFLAWYQQKPGKAPKLLIYTASNLETGVPSRFSGSGSGTDFTLTISSLQPEDFATYYCLGGLYSSDVSYAFGGGTKVVIKRTVAAPSVFIFPPSDEQLKSGTASVVCLLNNFYPREAKVQWKVDNALQSGNSQESVTEQDSKDSTYSLSSTLTLSKADYEKHKVYACEVTHQGLSSPVTKSFNRGEC
notes: humanized IgG1/kappa, VH4+VL3
B4: the EC50 in test [1] was determined as 0.0248 µg/mL; in test [2] it was 0.00734 µg/mL; in [3] it was 1.51 µg/mL; with human LILRB2 on cells [4] it was 0.00135 µg/mL; with human LILRB1 on cells [15] it was 0.0515 µg/mL. The MFI in [5] stood at 220 MFI; in test [6] it was 71.8 MFI; in test [7] it was 79.2 MFI; in test [8], 85.5 MFI; in [9], 25.2 MFI; with human LILRB1 on cells [10], 1120 MFI. Moreover, the MFI is 26.5 MFI in test [11], 114 MFI in [12], 6370 MFI with human LILRB2 on cells [13] and 141 MFI in [14]. In addition, the binding result in test [5], in test [6], in test [7], in test [8], in test [9] and in test [11] was “no binding (tested: 1 µg/mL)” throughout. Moreover, the binding result in test [12] and in test [14] was “no binding (tested: 1 µg/mL)” each time.
